Molecular target: mouse CD22 (mouse) (UniProt P35329)
Test: cell-based or functional assay

Chain of UniProt P35329 (P35329 22-868): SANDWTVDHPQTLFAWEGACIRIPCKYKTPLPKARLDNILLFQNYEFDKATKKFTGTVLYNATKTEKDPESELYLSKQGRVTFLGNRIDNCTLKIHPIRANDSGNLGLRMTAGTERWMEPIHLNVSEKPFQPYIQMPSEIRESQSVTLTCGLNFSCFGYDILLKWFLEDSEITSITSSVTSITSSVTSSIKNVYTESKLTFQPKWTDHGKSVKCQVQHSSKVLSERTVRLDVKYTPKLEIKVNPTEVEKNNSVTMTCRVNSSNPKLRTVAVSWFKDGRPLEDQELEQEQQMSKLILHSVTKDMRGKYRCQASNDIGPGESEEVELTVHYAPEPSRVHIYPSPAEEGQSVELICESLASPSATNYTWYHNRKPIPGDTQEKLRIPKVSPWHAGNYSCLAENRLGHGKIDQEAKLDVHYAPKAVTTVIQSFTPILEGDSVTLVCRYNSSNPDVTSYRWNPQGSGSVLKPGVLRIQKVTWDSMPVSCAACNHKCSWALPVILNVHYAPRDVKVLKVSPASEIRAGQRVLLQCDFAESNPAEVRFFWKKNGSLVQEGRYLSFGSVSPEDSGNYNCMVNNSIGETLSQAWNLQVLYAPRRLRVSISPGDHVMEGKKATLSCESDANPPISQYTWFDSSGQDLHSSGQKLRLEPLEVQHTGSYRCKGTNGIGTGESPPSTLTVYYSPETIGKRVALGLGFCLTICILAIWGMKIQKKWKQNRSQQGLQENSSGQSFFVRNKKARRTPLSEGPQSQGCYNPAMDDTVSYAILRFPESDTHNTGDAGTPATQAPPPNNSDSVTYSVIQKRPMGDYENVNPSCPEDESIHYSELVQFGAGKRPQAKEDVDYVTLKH

**Q.** With “mouse monoclonal anti-CD22 antibody (Cy34, BioXCell)” as the substance, how does the receptor occupancy necessary to achieve IC50 in the pSHP1/SHP1 assay read?
**A.** Its receptor occupancy necessary to achieve IC50 in the pSHP1/SHP1 assay is < 50%.
